Laboratory results reported in PMC9482650, “Quantitative fragmentomics allow affinity mapping of interactomes” (Nature Communications, 2022).

Experiments:
Assay in all cases: holdup assay
Design in all cases: key: below the threshold = too weak to quantify, mostly under pKd 3.1 to 4
Conditions in all cases: plain residues with an end cap or a label only (N-terminal biotin on a linker: ado-ado)
[1] = target: T1, LIN7C, Q9NUP9
T1 sequence (Q9NUP9 88-185, limits assumed, looked up): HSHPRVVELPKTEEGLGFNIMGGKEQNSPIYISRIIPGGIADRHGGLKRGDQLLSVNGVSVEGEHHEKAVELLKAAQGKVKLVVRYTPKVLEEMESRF

[2] = target: FRMPD2_1, Q68DX3
[3] = target: T2, SNTG2, Q9NY99
T2 sequence (Q9NY99 68-166, limits assumed, looked up): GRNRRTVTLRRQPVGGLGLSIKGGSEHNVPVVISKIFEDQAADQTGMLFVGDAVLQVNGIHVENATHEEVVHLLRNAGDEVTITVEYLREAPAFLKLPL

[4] = target: T3, PARD3B_1, Q8TEW8
T3 sequence (Q8TEW8 196-299, limits assumed, looked up): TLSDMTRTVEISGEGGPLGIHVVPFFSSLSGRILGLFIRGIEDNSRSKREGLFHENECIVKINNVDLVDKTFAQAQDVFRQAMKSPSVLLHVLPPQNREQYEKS

[5] = target: DLG1_2, Q12959
[6] = target: T4, ARHGEF11, O15085
T4 sequence (O15085 42-136, limits assumed, looked up): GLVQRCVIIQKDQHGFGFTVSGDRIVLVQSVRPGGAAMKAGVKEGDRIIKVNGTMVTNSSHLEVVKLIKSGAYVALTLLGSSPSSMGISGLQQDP

[7] = target: T5, DFNB31_2, Q9P202
T5 sequence (Q9P202 274-371, limits assumed, looked up): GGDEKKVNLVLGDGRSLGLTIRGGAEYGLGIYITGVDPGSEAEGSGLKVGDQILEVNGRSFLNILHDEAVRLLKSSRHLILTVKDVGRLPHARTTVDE

[8] = target: TJP1_2, Q07157
[9] = target: T6, MPP2, Q14168
T6 sequence (Q14168 180-250, limits assumed, looked up): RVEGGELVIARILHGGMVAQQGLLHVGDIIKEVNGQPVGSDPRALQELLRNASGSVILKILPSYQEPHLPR

[10] = target: T7, RADIL, Q96JH8
T7 sequence (Q96JH8 971-1071, limits assumed, looked up): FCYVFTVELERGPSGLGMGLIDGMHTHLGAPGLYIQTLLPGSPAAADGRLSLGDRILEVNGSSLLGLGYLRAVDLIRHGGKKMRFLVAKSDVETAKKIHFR

[11] = target: MAGI2_4, Q86UL8
[12] = target: MAGI1_2, Q96QZ7
[13] = target: T8, SIPA1L2, Q9P2F8
T8 sequence (Q9P2F8 945-1036, limits assumed, looked up): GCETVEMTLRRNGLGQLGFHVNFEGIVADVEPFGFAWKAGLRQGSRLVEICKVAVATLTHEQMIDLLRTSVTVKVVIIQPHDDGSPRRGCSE

[14] = target: FRMPD3, Q5JV73
[15] = target: GRIP2_7, Q9C0E4
[16] = target: MAGI2_2, Q86UL8
[17] = target: T9, GRIP1_3, Q9Y3R0
T9 sequence (Q9Y3R0 247-346, limits assumed, looked up): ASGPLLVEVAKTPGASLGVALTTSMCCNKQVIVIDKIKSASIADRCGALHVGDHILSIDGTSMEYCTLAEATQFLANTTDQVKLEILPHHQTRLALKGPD

[18] = target: TJP2_1, Q9UDY2
[19] = target: T10, TJP3_3, O95049
T10 sequence (O95049 375-456, limits assumed, looked up): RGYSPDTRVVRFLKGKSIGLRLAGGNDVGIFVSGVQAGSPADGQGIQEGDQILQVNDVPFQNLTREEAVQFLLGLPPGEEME

[20] = target: Inadl_5, Q8NI35
[21] = target: MAST1, Q9Y2H9
[22] = target: DLG5_1, Q8TDM6
[23] = target: T11, LNX2_3, Q8N448
T11 sequence (Q8N448 463-564, limits assumed, looked up): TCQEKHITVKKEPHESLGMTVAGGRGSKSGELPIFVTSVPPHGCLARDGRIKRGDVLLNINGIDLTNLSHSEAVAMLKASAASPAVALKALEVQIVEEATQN

[24] = target: T12, DFNB31_1, Q9P202
T12 sequence (Q9P202 135-233, limits assumed, looked up): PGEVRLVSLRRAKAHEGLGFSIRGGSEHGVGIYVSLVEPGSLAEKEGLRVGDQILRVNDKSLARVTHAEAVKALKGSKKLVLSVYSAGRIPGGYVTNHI

[25] = target: CASK, O14936
[26] = target: GIPC2, Q8TF65
Sequence of GIPC2, Q8TF65 (Q8TF65 112-203): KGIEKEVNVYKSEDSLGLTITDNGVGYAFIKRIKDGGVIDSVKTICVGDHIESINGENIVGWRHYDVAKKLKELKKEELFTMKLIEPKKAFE

Sequence of MAGI2_2, Q86UL8 (Q86UL8 410-522): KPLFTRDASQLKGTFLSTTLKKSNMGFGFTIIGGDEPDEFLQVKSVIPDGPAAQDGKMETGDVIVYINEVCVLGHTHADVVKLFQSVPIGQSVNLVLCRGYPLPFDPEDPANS
Sequence of MAGI1_2, Q96QZ7 (Q96QZ7 456-580): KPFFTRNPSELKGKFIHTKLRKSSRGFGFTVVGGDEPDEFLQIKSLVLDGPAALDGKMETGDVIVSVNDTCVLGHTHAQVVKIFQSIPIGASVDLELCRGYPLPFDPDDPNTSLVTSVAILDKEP
Sequence of TJP1_2, Q07157 (Q07157 181-274): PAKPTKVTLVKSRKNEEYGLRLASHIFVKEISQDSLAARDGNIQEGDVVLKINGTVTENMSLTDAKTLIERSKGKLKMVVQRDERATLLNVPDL
Sequence of MAST1, Q9Y2H9 (Q9Y2H9 962-1065): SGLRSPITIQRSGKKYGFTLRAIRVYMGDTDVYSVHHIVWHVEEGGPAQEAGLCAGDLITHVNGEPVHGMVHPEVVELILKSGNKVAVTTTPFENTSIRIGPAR
Sequence of TJP2_1, Q9UDY2 (Q9UDY2 24-128): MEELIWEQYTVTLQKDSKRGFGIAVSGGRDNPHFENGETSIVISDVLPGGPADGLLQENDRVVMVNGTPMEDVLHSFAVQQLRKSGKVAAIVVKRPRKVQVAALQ
Sequence of DLG5_1, Q8TDM6 (Q8TDM6 617-713): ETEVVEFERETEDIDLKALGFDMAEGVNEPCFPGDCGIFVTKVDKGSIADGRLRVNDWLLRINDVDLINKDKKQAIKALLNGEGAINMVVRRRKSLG
Sequence of FRMPD3, Q5JV73 (Q5JV73 12-100): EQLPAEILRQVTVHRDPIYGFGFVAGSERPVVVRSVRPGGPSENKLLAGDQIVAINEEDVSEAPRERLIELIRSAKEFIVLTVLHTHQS
Sequence of CASK, O14936 (O14936 487-570): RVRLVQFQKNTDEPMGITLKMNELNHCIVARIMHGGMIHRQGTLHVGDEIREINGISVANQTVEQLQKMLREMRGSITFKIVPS
Sequence of Inadl_5, Q8NI35 (Q8NI35 673-780): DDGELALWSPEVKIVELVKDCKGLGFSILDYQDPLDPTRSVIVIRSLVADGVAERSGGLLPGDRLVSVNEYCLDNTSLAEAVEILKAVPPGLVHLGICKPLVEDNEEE
Sequence of GRIP2_7, Q9C0E4 (Q9C0E4 934-1023): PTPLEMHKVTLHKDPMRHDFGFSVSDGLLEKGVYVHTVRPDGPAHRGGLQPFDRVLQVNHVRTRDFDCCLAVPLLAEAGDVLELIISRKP
Sequence of FRMPD2_1, Q68DX3 (Q68DX3 770-861): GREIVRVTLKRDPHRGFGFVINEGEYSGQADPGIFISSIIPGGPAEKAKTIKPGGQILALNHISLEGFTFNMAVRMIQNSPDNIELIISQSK
Sequence of DLG1_2, Q12959 (Q12959 314-412): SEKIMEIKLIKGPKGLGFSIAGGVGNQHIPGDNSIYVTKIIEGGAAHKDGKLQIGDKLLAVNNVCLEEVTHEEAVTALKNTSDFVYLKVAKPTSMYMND
Sequence of MAGI2_4, Q86UL8 (Q86UL8 772-865): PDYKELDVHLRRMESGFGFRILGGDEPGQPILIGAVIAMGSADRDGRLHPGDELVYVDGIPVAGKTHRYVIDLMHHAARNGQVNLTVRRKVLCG

## PTPDLPQTRV [KLHDC7A, Q5VTJ3]
[1]
  pKd: 3.49
[2]
  pKd: below the threshold
[3]
  pKd: 5.24
[4]
  pKd: 3.72
[5]
  pKd: 3.53
[6]
  pKd: 4.16
[7]
  pKd: 3.69
[8]
  pKd: below the threshold
[9]
  pKd: below the threshold
[10]
  pKd: below the threshold
[11]
  pKd: below the threshold
[12]
  pKd: below the threshold
[13]
  pKd: below the threshold
[14]
  pKd: below the threshold
[15]
  pKd: below the threshold
[16]
  pKd: 3.86
[17]
  pKd: below the threshold
[18]
  pKd: below the threshold
[19]
  pKd: below the threshold
[20]
  pKd: below the threshold
[21]
  pKd: 4.58
[22]
  pKd: below the threshold
[23]
  pKd: below the threshold
[24]
  pKd: 4.79
[25]
  pKd: below the threshold
[26]
  pKd: below the threshold

## ARSAAASNYV [CLDN4, O14493]
[1]
  pKd: 3.99
[2]
  pKd: below the threshold
[3]
  pKd: below the threshold
[4]
  pKd: 3.65
[5]
  pKd: below the threshold
[6]
  pKd: 3.8
[7]
  pKd: below the threshold
[8]
  pKd: below the threshold
[9]
  pKd: below the threshold
[10]
  pKd: 4.5
[11]
  pKd: 3.65
[12]
  pKd: below the threshold
[13]
  pKd: 3.53
[14]
  pKd: below the threshold
[15]
  pKd: below the threshold
[16]
  pKd: 3.6
[17]
  pKd: below the threshold
[18]
  pKd: 3.92
[19]
  pKd: 3.65
[20]
  pKd: 3.68
[21]
  pKd: 3.66
[22]
  pKd: below the threshold
[23]
  pKd: below the threshold
[24]
  pKd: below the threshold
[25]
  pKd: below the threshold
[26]
  pKd: below the threshold

## NTANRRTTPV [CACNG2, Q9Y698]
[1]
  pKd: below the threshold
[2]
  pKd: below the threshold
[3]
  pKd: below the threshold
[4]
  pKd: below the threshold
[5]
  pKd: 5.01
[6]
  pKd: 3.83
[7]
  pKd: below the threshold
[8]
  pKd: below the threshold
[9]
  pKd: below the threshold
[10]
  pKd: below the threshold
[11]
  pKd: below the threshold
[12]
  pKd: 4.72
[13]
  pKd: below the threshold
[14]
  pKd: below the threshold
[15]
  pKd: below the threshold
[16]
  pKd: 4.98
[17]
  pKd: below the threshold
[18]
  pKd: 3.9
[19]
  pKd: below the threshold
[20]
  pKd: below the threshold
[21]
  pKd: below the threshold
[22]
  pKd: below the threshold
[23]
  pKd: below the threshold
[24]
  pKd: 3.76
[25]
  pKd: below the threshold
[26]
  pKd: below the threshold
